From PMC9239388 (Journal of Inflammation Research, 2022) come the findings set out here.

The data set deals with the molecule itself. As to the kind of experiment: crystal structure.

B1: human anionic trypsin (TRY2), enterokinase activated, cleaved at the Arg122-Val123 bond (enzyme)
chain 1: IVGGYICEENSVPYQVSLNSGYHFCGGSLISEQWVVSAGHCYKSRIQVRLGEHNIEVLEGNEQFINAAKIIRHPKYNSRTLDNDILLIKLSSPAVINSR
chain 2: VSAISLPTAPPAAGTESLISGWGNTLSSGADYPDELQCLDAPVLSQAECEASYPGKITNNMFCVGFLEGGKDSCQGDSGGPVVSNGELQGIVSWGYGCAQKNRPGVYTKVYNYVDWIKDTIAANS
As to B1, the binding result was “binds”.
